The values that follow come from PMC11804706 (Proceedings of the National Academy of Sciences of the …, 2025).

The target in assay [1] is DnaJ, wild type (E. coli) (UniProt P08622). Nature of the assay: pull-down.
The target in a further assay is ClpB, wild type (E. coli, UniProt P63284 1-857). Nature of the assay: BLI. (In general: BLI is a label-free optical method that tracks binding on a fibre tip over time.)
Chain of ClpB, wild type (P63284 whole entry): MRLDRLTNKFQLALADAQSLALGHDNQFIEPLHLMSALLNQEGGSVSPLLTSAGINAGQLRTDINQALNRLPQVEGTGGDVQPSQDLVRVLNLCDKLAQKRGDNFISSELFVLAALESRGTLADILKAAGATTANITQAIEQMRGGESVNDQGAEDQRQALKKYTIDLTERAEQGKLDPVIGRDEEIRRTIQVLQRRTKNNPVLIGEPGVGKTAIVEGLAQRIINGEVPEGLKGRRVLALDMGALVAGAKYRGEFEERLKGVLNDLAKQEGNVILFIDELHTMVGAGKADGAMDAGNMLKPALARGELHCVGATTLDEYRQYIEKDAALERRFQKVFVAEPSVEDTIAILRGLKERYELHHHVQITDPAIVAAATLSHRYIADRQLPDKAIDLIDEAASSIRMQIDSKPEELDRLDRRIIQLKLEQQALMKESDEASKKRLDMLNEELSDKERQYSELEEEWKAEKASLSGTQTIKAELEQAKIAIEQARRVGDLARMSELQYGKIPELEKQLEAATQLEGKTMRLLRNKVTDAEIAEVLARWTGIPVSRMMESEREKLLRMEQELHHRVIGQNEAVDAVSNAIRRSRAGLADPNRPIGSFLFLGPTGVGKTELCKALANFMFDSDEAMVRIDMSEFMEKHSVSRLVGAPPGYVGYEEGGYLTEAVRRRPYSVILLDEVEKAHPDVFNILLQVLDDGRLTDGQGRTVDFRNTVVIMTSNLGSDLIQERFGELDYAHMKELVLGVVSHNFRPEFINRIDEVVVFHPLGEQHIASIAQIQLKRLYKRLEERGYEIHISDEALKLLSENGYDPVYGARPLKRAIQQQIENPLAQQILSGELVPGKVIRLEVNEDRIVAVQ

The molecule “ΔN ClpB (ClpB mutant lacking the NTD) (domain or fragment)” returned a binding as percent of wild-type ClpB in assay [1] of 40%.

B1: DnaJ, wild type (natural protein)
chain: MAKQDYYEILGVSKTAEEREIRKAYKRLAMKYHPDRNQGDKEAEAKFKEIKEAYEVLTDSQKRAAYDQYGHAAFEQGGMGGGGFGGGADFSDIFGDVFGDIFGGGRGRQRAARGADLRYNMELTLEEAVRGVTKEIRIPTLEECDVCHGSGAKPGTQPQTCPTCHGSGQVQMRQGFFAVQQTCPHCQGRGTLIKDPCNKCHGHGRVERSKTLSVKIPAGVDTGDRIRLAGEGEAGEHGAPAGDLYVQVQVKQHPIFEREGNNLYCEVPINFAMAALGGEIEVPTLDGRVKLKVPGETQTGKLFRMRGKGVKSVRGGAQGDLLCRVVVETPVGLNERQKQLLQELQESFGGPTGEHNSPRSKSFFDGVKKFFDDLTR
modifications: biotin (DnaJ-biotin in the pull-down assays with ClpB; sites not stated)
As usually defined, the Kd is a measure of binding affinity in units of concentration. Low readings indicate a tighter complex, high ones a looser complex. Turning to B1, in the assay with ClpB, wild type, binding was characterised by a dissociation constant (Kd) of 55.2 ± 9.9 nM.
